Like-named read-outs stand apart in the source and are kept apart here.
Experiments:
ZBTB7A long fragment [1] = molecular target: T1, ZBTB7A long fragment (Homo sapiens, UniProt O95365 341-505); assay: X-ray crystallography
[2] = molecular target: T2, ZBTB7A ZF1-4 short fragment (Homo sapiens, UniProt O95365 370-500); assay: X-ray crystallography
[3] = molecular target: T2, ZBTB7A ZF1-4 short fragment; assay: X-ray crystallography; remark: listed apart in the source
[4] = molecular target: T2, ZBTB7A ZF1-4 short fragment; assay: X-ray crystallography; remark: listed apart in the source
ZBTB7A long fragment [5] = molecular target: T1, ZBTB7A long fragment; assay: FP
[6] = molecular target: T2, ZBTB7A ZF1-4 short fragment; assay: FP
[7] = molecular target: T2, ZBTB7A ZF1-4 short fragment; assay: X-ray crystallography; remark: listed apart in the source

T2 sequence (O95365 370-500): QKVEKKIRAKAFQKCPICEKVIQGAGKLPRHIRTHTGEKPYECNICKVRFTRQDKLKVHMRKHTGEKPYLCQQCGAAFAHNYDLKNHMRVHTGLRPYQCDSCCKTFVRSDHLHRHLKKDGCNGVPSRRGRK
T1 sequence (O95365 341-505): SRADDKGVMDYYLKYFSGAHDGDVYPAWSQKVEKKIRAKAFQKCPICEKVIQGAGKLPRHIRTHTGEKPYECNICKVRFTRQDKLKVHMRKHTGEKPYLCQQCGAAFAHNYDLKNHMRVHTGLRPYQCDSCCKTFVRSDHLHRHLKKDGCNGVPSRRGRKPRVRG

B1: CAST crystal DNA 8E3E (dsDNA)
DNA 1: GGTAAAAGACCCCTCCCCAAA
DNA 2: CTTTGGGGAGGGGTCTTTTAC
binding result (ZBTB7A long fragment [1]): binds

B2: CAST crystal DNA 8E3D (dsDNA)
DNA 1: GGTAAAAGACCCCTCCCCAAAT
DNA 2: ATTTGGGGAGGGGTCTTTTACC
binding result [2]: binds

B3: GaCCC crystal DNA 7N5V (dsDNA)
DNA 1: GGGACCCTTGATGTTT
DNA 2: AAACATCAAGGGTCCC
binding result [3]: binds

B4: GaCCC crystal DNA 7N5U (dsDNA)
DNA 1: GGGACCCTTGATGTTT
DNA 2: CAAACATCAAGGGTCC
binding result [4]: binds

B5: oligo #6 CAST 16 bp (dsDNA)
DNA 1: AAGACCCCTCCCCGAA
DNA 2: TTCGGGGAGGGGTCTT
Kd (ZBTB7A long fragment [5]): ~80 nM | Kd [6]: ~80 nM

B6: GaCCC crystal DNA 7N5W (dsDNA)
DNA 1: GGGACCCTTCATGTTT
DNA 2: CAAACATGAAGGGTCC
binding result [7]: binds

Source: article PMC9932118
